The target in one data set is T1, HjCel3A (Trichoderma reesei, UniProt Q12715).
T1 construct: gene bgl1
T1 sequence (Q12715 20-744): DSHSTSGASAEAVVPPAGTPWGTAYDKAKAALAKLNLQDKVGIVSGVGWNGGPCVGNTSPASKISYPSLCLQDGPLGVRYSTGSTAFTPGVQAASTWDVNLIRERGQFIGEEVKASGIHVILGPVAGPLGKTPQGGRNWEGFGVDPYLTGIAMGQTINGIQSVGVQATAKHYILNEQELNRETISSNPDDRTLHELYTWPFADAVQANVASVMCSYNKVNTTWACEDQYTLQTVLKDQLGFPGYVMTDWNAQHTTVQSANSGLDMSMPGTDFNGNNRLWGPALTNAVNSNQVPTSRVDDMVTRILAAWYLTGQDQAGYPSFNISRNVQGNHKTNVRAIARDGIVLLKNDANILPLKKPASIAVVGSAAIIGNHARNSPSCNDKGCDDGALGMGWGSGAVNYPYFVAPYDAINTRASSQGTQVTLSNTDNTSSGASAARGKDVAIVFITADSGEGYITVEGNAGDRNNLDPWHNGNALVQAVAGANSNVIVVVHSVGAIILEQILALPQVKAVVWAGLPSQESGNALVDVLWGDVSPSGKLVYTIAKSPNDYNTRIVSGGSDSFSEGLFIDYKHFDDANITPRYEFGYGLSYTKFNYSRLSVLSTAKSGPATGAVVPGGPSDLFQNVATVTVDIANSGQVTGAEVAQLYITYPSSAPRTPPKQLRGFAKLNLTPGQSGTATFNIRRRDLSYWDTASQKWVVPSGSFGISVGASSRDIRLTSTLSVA
The experiment in a line: differential scanning calorimetry. Format: binding. The note with it: 1000 µM; 1 mM glucose; 10 mM sodium acetate pH 5.0; Tm without glucose 77.6 °C; scan rate 200°C/h; irreversible unfolding. The text has this:
differential scanning calorimetry on HjCel3A
Background: Differential scanning calorimetry records heat flow against a reference as temperature is scanned.

Data set [1] has as its target β-glucosidase Cel3A from Rasamsonia emersonii (Rasamsonia emersonii). As to the kind of experiment: SEC; gel-filtration characterization of purified ReCel3A; conditions of this run not told.
Substrate in data set [2]: O=[N+]([O-])c1ccc(O[C@@H]2OC[C@@H](O)[C@H](O)[C@H]2O)c(Cl)c1
As to the kind of experiment: chromogenic substrate kinetics (method for CNPX not described). The format is biochemical, Rasamsonia emersonii. The note with it: conditions for CNPX not stated, other chromogenic substrates pH 5.0, 37°C.

Substrate in data set [3]: O=[N+]([O-])c1ccc(O[C@@H]2O[C@H](CO)[C@@H](O)[C@H](O)[C@H]2O)c(Cl)c1
As to the kind of experiment: purified protein. The format is biochemical, Rasamsonia emersonii. The note with it: 100 mM phosphate pH 5.0, 37°C.

Substrate in data set [4]: O=[N+]([O-])c1ccc(O[C@@H]2O[C@H](CO)[C@@H](O)[C@H](O)[C@H]2O)cc1
As to the kind of experiment: purified protein. The note with it: 100 mM phosphate pH 5.0, 37°C.

For `OC[C@H]1OC(O)[C@H](O)[C@@H](O)[C@@H]1O` (some centres unmarked) [glucose], the “T m (°C)” value on HjCel3A was found to be 79.0 °C.

For the molecule “β-glucosidase Cel3A from Rasamsonia emersonii (enzyme)”, the stoichiometry N – broadly, the number of molecules, sites or subunits per partner or assembly – in data set [1] came to 2.

B1: ReCel3A (Rasamsonia emersonii) (protein)
chain: NLAYSPPFYPSPWANGQGDWAEAYQKAVQFVSQLTLAEKVNLTTGTGWEQDRCVGQVGSIPRLGFPGLCMQDSPLGVRDTDYNSAFPAGVNVAATWDRNLAYRRGVAMGEEHRGKGVDVQLGPVAGPLGRSPDAGRNWEGFAPDPVLTGNMMASTIQGIQDAGVIACAKHFILYEQEHFRQGAQDGYDISDSISANADDKTMHELYLWPFADAVRAGVGSVMCSYNQVNNSYACSNSYTMNKLLKSELGFQGFVMTDWGGHHSGVGSALAGLDMSMPGDIAFDSGTSFWGTNLTVAVLNGSIPEWRVDDMAVRIMSAYYKVGRDRYSVPINFDSWTLDTYGPEHYAVGQGQTKINEHVDVRGNHAEIIHEIGAASAVLLKNKGGLPLTGTERFVGVFGKDAGSNPWGVNGCSDRGCDNGTLAMGWGSGTANFPYLVTPEQAIQREVLSRNGTFTGITDNGALAEMAAAASQADTCLVFANADSGEGYITVDGNEGDRKNLTLWQGADQVIHNVSANCNNTVVVLHTVGPVLIDDWYDHPNVTAILWAGLPGQESGNSLVDVLYGRVNPGKTPFTWGRARDDYGAPLIVKPNNGKGAPQQDFTEGIFIDYRRFDKYNITPIYEFGFGLSYTTFEFSQLNVQPINAPPYTPASGFTKAAQSFGQPSNASDNLYPSDIERVPLYIYPWLNSTDLKASANDPDYGLPTEKYVPPNATNGDPQPIDPAGGAPGGNPSLYEPVARVTTIITNTGKVTGDEVPQLYVSLGGPDDAPKVLRGFDRITLAPGQQYLWTTTLTRRDISNWDPVTQNWVVTNYTKTIYVGNSSRNLPLQAPLKPYPGI
notes: secreted mature protein, signal peptide 1-20 removed; codon-optimized gene expressed in Hypocrea jecorina RL-P37 derivative with four cellulases deleted; no tag; N-glycosylated; dimer in solution; visible residues Asp21-Pro855
On to B1, for which the Km (in general, the substrate concentration at which the rate is half of its maximum) in data set [2] was 660 µM; in “purified protein [3]” it was 400 µM; in “purified protein [4]”, 400 µM. For the same molecule, the kcat – broadly, the maximal rate divided by the concentration of active sites – in data set [2] amounted to 0.23 s⁻¹; in the data set “purified protein [3]”, 14 s⁻¹; in the data set “purified protein [4]”, 5.4 s⁻¹. Also, the catalytic efficiency (kcat/Km) (commonly the turnover number divided by the Michaelis constant) in data set [2] turned out to be 350 M⁻¹ s⁻¹; in the data set “purified protein [3]”, 36000 M⁻¹ s⁻¹; in “purified protein [4]”, 14000 M⁻¹ s⁻¹.

The values are drawn from paper PMC4932919, “Structural and functional studies of the glycoside hydrolase family 3 β-glucosidase Cel3A from the moderately thermophilic fungus Rasamsonia emersonii” (Acta Crystallographica. Section D, Structural Biology, 2016).
